# Substitutions are numbered along the chain they refer to.
# Experiments:
# [1] = tested on: CprR / higB DNA fragments; assay: EMSA, CprR binding to higB promoter DNA; parameters: species or system P. aeruginosa; conditions: 4°C 30 min
# Experimental: (§1) The gene promoters were obtained by PCR. The CprR and DNA fragment were mixed in different ratios (total 10 μL buffer, 25 mM Tris–HCl pH 7.5, 150 mM NaCl, 1 mM MgCl2, 2 mM KCl) and incubated at 4°C for 30 min, then the samples were analyzed by 8% polyacrylamide gel electrophoresis in 0.5 × TBE (Tris/boric acid/EDTA) buffer at 130 V for 120 min. The bands were staining with EB and visualized through BioRad imager.
# [2] = tested on: CprRD53A / higB DNA fragments; assay: EMSA, CprRD53A binding to higB promoter DNA; parameters: species or system P. aeruginosa; conditions: 4°C 30 min
# Experimental: as §1
# [3] = tested on: T1, CprR (Pseudomonas aeruginosa (PAO1 or PA14; strain of cloned gene not stated)), ORF:b369b159; assay: EMSA
# T1 sequence: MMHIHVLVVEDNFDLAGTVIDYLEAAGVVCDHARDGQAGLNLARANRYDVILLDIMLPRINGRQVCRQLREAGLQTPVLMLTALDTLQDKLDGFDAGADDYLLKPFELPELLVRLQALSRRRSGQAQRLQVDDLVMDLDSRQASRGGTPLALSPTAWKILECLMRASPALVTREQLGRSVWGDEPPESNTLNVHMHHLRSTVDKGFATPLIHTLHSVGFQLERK
# [4] = tested on: T2, CprR H214A H215A (Pseudomonas aeruginosa), ORF:b369b159; assay: EMSA
# T2 sequence: T1 sequence with H215A
# [5] = tested on: T3, CprR N188A N189A (Pseudomonas aeruginosa), ORF:b369b159; assay: EMSA
# T3 sequence: T1 sequence with N189A
# [6] = tested on: T4, CprR R198A R199A (Pseudomonas aeruginosa), ORF:b369b159; assay: EMSA
# T4 sequence: T1 sequence with R199A
# [7] = tested on: T5, CprR S187A S188A (Pseudomonas aeruginosa), ORF:b369b159; assay: EMSA
# T5 sequence: T1 sequence with S188A
# [8] = tested on: T6, CprR V192A V193A (Pseudomonas aeruginosa), ORF:b369b159; assay: EMSA
# T6 sequence: T1 sequence with V193A
# [9] = tested on: T7, CprR W180A W181A (Pseudomonas aeruginosa), ORF:b369b159; assay: EMSA
# T7 sequence: T1 sequence with W181A
# [10] = tested on: biofilms of uropathogenic E. coli; conditions: cited from earlier work
# Description: In the field of microbiology and immunology, the interaction between host antimicrobial peptides and pathogenic bacteria has been a subject of extensive research. The success of bacterial infections depends on a delicate balance of signals exchanged between microbes and hosts. Cationic antimicrobial peptides, including defensins such as α-defensins, β-defensins, and cathelicidin LL-37, are crucial components of innate host defense against bacterial infections. Numerous studies have shown that LL-37 acts as a shield between the host and the external environment, preventing bact ...
compound,measurement,setting,value
"CC(=O)OP(=O)(O)O [acetyl phosphate (ACP), acetyl phosphate]",effect of acetyl phosphate on DNA binding of CprR,[1],enhanced the binding of CprR to its target higB DNA fragments
same,effect of acetyl phosphate on DNA binding of CprR,[1]; listed as AcP,enhanced the DNA-binding ability of CprR
same,effect of acetyl phosphate on DNA binding of the D53A mutant,[2],unable to exhibit this enhanced binding
CTGGTCGAGTCGATGATGGTGGCCGGGCGCTGAGGCCGGGTTTCCCTCTATAAAACGCCAGCGCTCGTCGCTGGCGTTTTCGTTTCCGCCTGTTCAATTGTCCGCCTCTATGGGGACCATGCTTGTCTTTTGCCAAGAAGAAAACAATAATCAATCTCATTATCGTCTGGTGAGGTTGCC (double strand) [higB promoter (PhigB)],binding,[3],binds
same,binding,[4],binds more weakly
same,binding,[5],binds more weakly
same,binding,[6],binds more weakly
same,binding,[7],binds more weakly
same,binding,[8],binds more weakly
same,binding,[9],binds more weakly
Cecropin A,biofilm disruption,[10],disrupt biofilms of uropathogenic E. coli
